According to patent publication US20250282885A1 (VST BIO, published 2025):

B1: 8-G17-A (antibody, V domains shown)
VH: EVQLVESGGGLVKPGGSLKLSCEASGITFSNYVMSWVRQTPEKRLEWVATISDGGSYTYYPDNLKGRFTISRDNAKNNLYLQMSHLKSEDTAMYYCVRDRYDYDGRVYAMDYWGQGTSVTVSS
VL: DVVMTQTPLSLPVSLGDQASISCRSSQSLVHSNGNTYLHWYLQKPGQSPKLLIYKVSNRFSGVPDRFSGSGSGTDFTLKITRVEAEDLGVYFCSQSTHVPWTFGGGTKLEIKR
notes: PentaMice hybridoma clone, made recombinantly in CHO cells
B2: R3-P3-E09 (antibody, human IgG1, kappa, V domains shown)
VH: EVQLVETGGGVVQPGRSLTLSCGASEFTFSNYAMHWVRQAPGKGLEWVAVISYDGTKKYYGDSVKGRFTISRENIKNTLYLQMNSLRSEDTAVYYCARDVGKGVTATGTFDIWGQGTMVTVSS
VL: AIRMTQSPSSLSASVGDRVTITCRASQGIGSYLAWFQQKPGEAPKSLIIDATRLKSGVPSRFSGSGSGTEFALTISSLRPEDFATYYCQQYNVSPLTFGGGTKVEIKR
notes: human IgG1 kappa from the phage campaign

How the values were obtained:
[1] = target: human Sdc2 on Human Umbilical Vein Endothelial Cells (HUVEC) (human, UniProt P34741 19-201); assay: cell-based or functional assay
human Sdc2 [2] = target: T1, human Sdc2 (human, UniProt P34741 19-144, limits assumed); assay: Kd (human Sdc2), summary table of the mAbs
T1 construct: Antigen of the Octet tandem binning, loaded on biosensors at 100 nM; also called huSdc2; hSdc2

human Sdc2 [3] = target: T1, human Sdc2; assay: Octet BLI, heading box over the sensorgram
Procedure: (§1) In order to characterize the binding affinity and in vivo/in vitro functional ability of the twelve clones generated by the previous studies and disclosed in Table 1, a series of assays were performed on each clone. These assays measured the affinity of each antibody clone for human, pig, and mouse Sdc2 using an Octet® binding assay system. Additionally, the functional ability of each clone to inhibit VEGFA-driven permeability (see Santiago, et al. (2021) J Am Heart Assoc. 10(18):e020521) was assessed in two therapeutic settings: a “prevention” study in which three concentrations of antibody (5 μg/ml, 10 μg/ml, 15 μg/ml, 20 μg/ml, and/or 40 μg/ml depending on the study) were pre-incubated for an hour before administration of 100 ng/ml of VEGFA, and a “treatment” study in which 3 hours of pre-treatment with 100 ng/ml VEGFA were followed by treatment with antibody at 20 μg/ml or 40 μg/ml. Results are shown for 8-G17 in FIG. 8 and FIG. 9, 20-H19-AB in FIG. 10 and FIG. 11 (FIG. 12 for monkey ECs), R3-P3-C11 in FIG. 13 and FIG. 14, R4M-P3-E06 in FIG. 15 and FIG. 16, R3-P3-E09 in FIG. 17 and FIG. 18, R3-P1-C02 in FIG. 19 and FIG. 20, R3-P3-A12 in FIG. 21 and FIG. 22, R4M-P3-A12 in FIG. 23 and FIG. 24, and R4M-P1-A10 in FIG. 25 and FIG. 26.

pig Sdc2 [4] = target: T2, pig Sdc2 (pig, UniProt F1S0L5 19-145); assay: Octet BLI, heading box over the sensorgram
T2 construct: also called pSdc2
Procedure: as §1

human Sdc2 [5] = target: T1, human Sdc2; assay: Octet tandem binning; saturating Ab f3 19838-6N03-A
Procedure: (§2) These studies were performed in a tandem binning assay format with human Sdc2, used as the antigen (concentration of 100 nM). Antigen loaded biosensors were dipped in a saturating solution of antibody (25 μg/ml) for 240 seconds followed by a competing antibody at 5 μg/ml for 180 seconds. […] Since saturation is not possible to achieve saturation with these clones, they are removed in as ligands, but retained in the analyte orientation in the analysis. A table summarizing the results of epitope binning of the 18 antibodies against huSdc2 is illustrated in FIG. 30. Data is normalized, where the raw binding signal from Competing Ab for a given Saturating Ab is divided by binding in the absence a […] (“buffer”). The threshold determining the matrix color is adjustable and dependent upon Ag-Ab binding. […] Table rows are based on similar looking binding profiles. Note that the coloration/cutoff is subjective, yellow color added to represent injections with ambiguous or very weak sandwiching signals. FIG. 31 illustrates a clustergram of the epitope binning studies, which was generated from the normalized binning data by importation into the statistical computing program R (The R Project for Statistical Computing: at r-project.org) and generation of a clustergram with the pvclust package.

human Sdc2 [6] = target: T1, human Sdc2; assay: Octet tandem binning; saturating Ab f9 19838-6-E17-A
Procedure: as §2

human Sdc2 [7] = target: T1, human Sdc2; assay: Octet tandem binning; saturating Ab f12 19838-6-N03-A
Procedure: as §2

human Sdc2 [8] = target: T1, human Sdc2; assay: Octet tandem binning; saturating Ab m1 19838-20H19-AB
Procedure: as §2

human Sdc2 [9] = target: T1, human Sdc2; assay: Octet tandem binning; saturating Ab f10 19838-10-I12-A
Procedure: as §2

human Sdc2 [10] = target: T1, human Sdc2; assay: Octet tandem binning; saturating Ab f11 19838-20-H19-A
Procedure: as §2

human Sdc2 [11] = target: T1, human Sdc2; assay: Octet tandem binning; saturating Ab f4 19844-R3-P3-C11
Procedure: as §2

human Sdc2 [12] = target: T1, human Sdc2; assay: Octet tandem binning; saturating Ab f6 19844-R3-P3-E09
Procedure: as §2

human Sdc2 [13] = target: T1, human Sdc2; assay: Octet tandem binning; saturating Ab f7 19844-R3-P3-A12
Procedure: as §2

human Sdc2 [14] = target: T1, human Sdc2; assay: Octet tandem binning; saturating Ab m7 19844-R3-P1-E07
Procedure: as §2

human Sdc2 [15] = target: T1, human Sdc2; assay: Octet tandem binning; saturating Ab f5 19844-R4M-P3-E06
Procedure: as §2

human Sdc2 [16] = target: T1, human Sdc2; assay: Octet tandem binning; saturating Ab f8 19844-R4M-P2-C02
Procedure: as §2

human Sdc2 [17] = target: T1, human Sdc2; assay: Octet tandem binning; saturating Ab m4 19844-R4M-P1-A10
Procedure: as §2

human Sdc2 [18] = target: T1, human Sdc2; assay: Octet tandem binning; Buffer in place of a saturating Ab
Procedure: as §2

human Sdc2 [19] = target: T1, human Sdc2; assay: Octet BLI, HIS1K sensor loaded with huSdc2, antibody as sample; Full R2 0.9968
pig Sdc2 [20] = target: T2, pig Sdc2; assay: Octet BLI, HIS1K sensor loaded with pigSdc2, antibody as sample; Full R2 0.997
human Sdc2 [21] = target: T1, human Sdc2; assay: Octet tandem binning; saturating Ab m6 19838-20H19-AA (marked non-binding ligand)
Procedure: as §2

human Sdc2 [22] = target: T1, human Sdc2; assay: Octet tandem binning; saturating Ab m3 19844-R3-P1-C02 (row boxed, self-self >0.09)
Procedure: as §2

human Sdc2 [23] = target: T1, human Sdc2; assay: Octet tandem binning; saturating Ab m8 19844-R4M-P1-B01 (marked non-binding ligand)
Procedure: as §2

human Sdc2 [24] = target: T1, human Sdc2; assay: Octet tandem binning; saturating Ab m5 19844-R4M-P3-A12 (row boxed, self-self >0.09)
Procedure: as §2

human Sdc2 [25] = target: T1, human Sdc2; assay: Octet tandem binning; saturating Ab m2 19838-8G17-A
Procedure: as §2

human Sdc2 [26] = target: T1, human Sdc2; assay: Octet BLI, HIS1K sensor loaded with hSdc2, antibody as sample; Full R2 0.9248

T1 sequence (P34741 19-144 limits assumed): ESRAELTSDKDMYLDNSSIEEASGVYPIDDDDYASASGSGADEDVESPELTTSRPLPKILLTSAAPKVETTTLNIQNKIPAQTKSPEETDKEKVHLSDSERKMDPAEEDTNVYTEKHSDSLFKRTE
human Sdc2 on Human Umbilical Vein Endothelial Cells (HUVEC), sequence (P34741 19-201 limits assumed): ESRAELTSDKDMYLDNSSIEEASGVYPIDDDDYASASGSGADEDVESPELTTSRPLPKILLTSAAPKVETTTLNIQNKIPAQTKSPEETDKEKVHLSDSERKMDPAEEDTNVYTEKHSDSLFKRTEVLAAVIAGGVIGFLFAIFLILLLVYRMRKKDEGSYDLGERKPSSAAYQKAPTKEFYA

Binder	% Inhibition of VEGFA-induced permeability at 24hrs (20ug/ml) [1]	Kd (human Sdc2 [2])	Kd (human Sdc2 [3])	raw competing-Ab binding signal (human Sdc2 [5])	raw competing-Ab binding signal (human Sdc2 [6])	raw competing-Ab binding signal (human Sdc2 [7])	raw competing-Ab binding signal (human Sdc2 [8])	raw competing-Ab binding signal (human Sdc2 [9])	raw competing-Ab binding signal (human Sdc2 [10])	raw competing-Ab binding signal (human Sdc2 [11])	raw competing-Ab binding signal (human Sdc2 [13])	raw competing-Ab binding signal (human Sdc2 [14])	raw competing-Ab binding signal (human Sdc2 [15])	raw competing-Ab binding signal (human Sdc2 [16])	raw competing-Ab binding signal (human Sdc2 [17])	raw competing-Ab binding signal (human Sdc2 [18])	raw competing-Ab binding signal (human Sdc2 [21])	raw competing-Ab binding signal (human Sdc2 [22])	raw competing-Ab binding signal (human Sdc2 [23])	raw competing-Ab binding signal (human Sdc2 [24])	also measured
B1	100%	0.46 nM	~0.46 nM	0.0574	0.79	0.0566	0.16	0.113	0.241	0.776	0.636	0.871	0.954	0.777	0.805	0.83	0.891	0.784	0.827	0.858	Kd (pig Sdc2 [4]): ~0.45 nM; raw competing-Ab binding signal (human Sdc2 [12]): 0.761; Kd (human Sdc2 [19]): 0.466 nM; koff (human Sdc2 [19]): 0.000235 s⁻¹; kon (human Sdc2 [19]): 505000 M⁻¹ s⁻¹; Kd (pig Sdc2 [20]): 0.455 nM; koff (pig Sdc2 [20]): 0.000195 s⁻¹; kon (pig Sdc2 [20]): 428000 M⁻¹ s⁻¹
B2	75%	17.7 nM	~17.7 nM	0.407	0.376	0.518	0.273	0.151	0.337	-0.138	-0.135	0.348	0.338	0.209	0.241	0.285	0.293	0.246	0.307	0.304	raw competing-Ab binding signal (human Sdc2 [25]): 0.397; Kd (human Sdc2 [26]): 17.7 nM; koff (human Sdc2 [26]): 0.00908 s⁻¹; kon (human Sdc2 [26]): 513000 M⁻¹ s⁻¹
